Experimental data taken from IntAct's records for PubMed 30026314.

B1: Protein Wnt-7a (Homo sapiens), O00755 (parent)
chain: MNRKARRCLGHLFLSLGMVYLRIGGFSSVVALGASIICNKIPGLAPRQRAICQSRPDAIIVIGEGSQMGLDECQFQFRNGRWNCSALGERTVFGKELKVGSREAAFTYAIIAAGVAHAITAACTQGNLSDCGCDKEKQGQYHRDEGWKWGGCSADIRYGIGFAKVFVDAREIKQNARTLMNLHNNEAGRKILEENMKLECKCHGVSGSCTTKTCWTTLPQFRELGYVLKDKYNEAVHVEPVRASRNKRPTFLKIKKPLSYRKPMDTDLVYIEKSPNYCEEDPVTGSVGTQGRACNKTAPQASGCDLMCCGRGYNTHQYARVWQCNCKFHWCCYVKCNTCSERTEMYTCK
partner: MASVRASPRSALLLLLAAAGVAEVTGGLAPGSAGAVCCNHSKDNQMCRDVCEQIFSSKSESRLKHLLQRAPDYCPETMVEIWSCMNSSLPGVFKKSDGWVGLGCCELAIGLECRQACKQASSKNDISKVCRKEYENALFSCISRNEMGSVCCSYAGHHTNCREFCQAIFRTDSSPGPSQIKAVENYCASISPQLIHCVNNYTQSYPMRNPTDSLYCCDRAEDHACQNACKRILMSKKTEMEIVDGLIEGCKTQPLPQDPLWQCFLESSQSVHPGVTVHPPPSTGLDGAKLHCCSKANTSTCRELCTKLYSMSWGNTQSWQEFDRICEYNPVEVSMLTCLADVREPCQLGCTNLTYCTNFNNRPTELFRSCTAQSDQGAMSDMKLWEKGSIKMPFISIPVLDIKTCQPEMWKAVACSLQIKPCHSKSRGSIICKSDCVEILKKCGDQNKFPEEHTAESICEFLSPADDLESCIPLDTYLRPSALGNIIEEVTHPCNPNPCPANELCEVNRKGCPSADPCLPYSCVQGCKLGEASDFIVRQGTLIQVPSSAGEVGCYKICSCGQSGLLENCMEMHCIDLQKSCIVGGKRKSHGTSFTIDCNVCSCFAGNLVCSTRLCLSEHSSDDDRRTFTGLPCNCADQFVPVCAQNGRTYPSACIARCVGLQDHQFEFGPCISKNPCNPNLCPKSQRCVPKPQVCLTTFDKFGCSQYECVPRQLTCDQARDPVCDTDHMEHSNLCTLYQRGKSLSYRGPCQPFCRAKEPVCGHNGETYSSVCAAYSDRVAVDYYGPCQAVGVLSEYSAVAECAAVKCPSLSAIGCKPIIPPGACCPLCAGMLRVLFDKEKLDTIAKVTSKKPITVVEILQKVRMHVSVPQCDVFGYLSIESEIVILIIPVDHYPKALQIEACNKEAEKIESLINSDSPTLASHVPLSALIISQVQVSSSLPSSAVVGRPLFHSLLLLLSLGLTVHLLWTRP

Variants of: B1
Conditions: with reck_mouse Reck

Variant | effect of a mutation on the interaction
MNRKARRCLGHLFLSLGMVYLRIGGFSSVVALGASIICNKIPGLAPRQRAICQSRPDAIIVIGEGSQMGLDECQFQFRNGRWNCSALGERTVFGKELKVGSREAAFTYAIIAAGVAHAITAACTQGNLSDCGCDKEKQGQYHRDEGWKWGGCSADIRYGIGFAKVFVDAREIKQNARTLMNLHNNEAGRKILEENMKLECKCHGVSGSCTTKTCWTTLPQFRELGYVLKDKYNEAVHVEPARASRNKRPTAAKIKKPLSYRAPMDTDLVYIEKSPNYCEEDPVTGSVGTQGRACNKTAPQASGCDLMCCGRGYNTHQYARVWQCNCKFHWCCYVKCNTCSERTEMYTCK [V241A;F251A;L252A;K262A] | disrupting interaction strength
